Reference: US20210069338A1 (published 2021)
Residue numbers refer to the chain shown, from its start.

B1: anti-TfR1 antibody (high affinity bivalent anti-TfR antibody, parent antibody without hapten-binding scFvs) (antibody, human IgG1, kappa, V domains shown)
VH: EVQLQQSGPELVKPGASMKISCKASGYSFTGYTMNWVKQSHGENLEWIGRINPHNGGTDYNQKFKDKAPLTVDKSSNTAYMELLSLTSEDSAVYYCARGYYYYSLDYWGQGTSVTVSS
VL: QIVLTQSPAIMSASPGEKVTMTCSASSSIRYIHWYQQRPGTSPKRWIYDTSNLASGVPARFSGSGSGTSYSLTISSMEAEDAATYYCHQRNSYPWTFGGGTRLEIKR
notes: also called antibody TfR1
B2: anti-TfR2 antibody (bivalent anti-TfR antibody with reduced affinity, parent antibody without hapten-binding scFvs) (antibody, human IgG1, kappa, V domains shown)
VH: EVQLQQSGPELVKPGASVKMSCKASGYTFTSYVMHWVKQKPGQGLEWIGYVNPYNDDTKYNEKFRGKATLTSDKSSSTAYMELSSLTSEDSAVYYCARSYYYYSMDNWGQGTSVTVSS
VL: B1 VL with M21V, I32M, R38K, N52E, S75N, N91S, W95F, R102K
notes: also called antibody TfR2
B3: TfR1-Dig bispecific antibody (digoxigenylated payload binding blood brain barrier-shuttle module that binds TfR with high affinity) (bispecific antibody, human IgG1, kappa)
light: QIVLTQSPAIMSASPGEKVTMTCSASSSIRYIHWYQQRPGTSPKRWIYDTSNLASGVPARFSGSGSGTSYSLTISSMEAEDAATYYCHQRNSYPWTFGGGTRLEIKRTVAAPSVFIFPPSDEQLKSGTASVVCLLNNFYPREAKVQWKVDNALQSGNSQESVTEQDSKDSTYSLSSTLTLSKADYEKHKVYACEVTHQGLSSPVTKSFNRGEC
heavy: not shown
notes: also called anti-TfR1 antibody-Dig
B4: TfR2-Bio bispecific antibody (biotinylated payload binding blood brain barrier-shuttle module that binds TfR with reduced affinity) (bispecific antibody, human IgG1, kappa)
light: B3 light with M21V, I32M, R38K, N52E, S75N, N91S, W95F, R102K
heavy: not shown
notes: also called anti-TfR2-Bio
B5: TfR2-Dig bispecific antibody (digoxigenylated payload binding blood brain barrier-shuttle module that binds TfR with reduced affinity) (bispecific antibody, human IgG1, kappa)
light: B3 light with M21V, I32M, R38K, N52E, S75N, N91S, W95F, R102K
heavy: not shown
notes: also called anti-TfR2-antibody Dig
B6: TfR1-Bio bispecific antibody (biotinylated payload binding blood brain barrier-shuttle module that binds TfR with high affinity) (bispecific antibody, human IgG1, kappa)
light: B3 light
heavy: not shown
notes: also called anti-TfR1 antibody-Bio

How the values were obtained:
[1] = target: T1, human transferrin receptor (TfR) on hCMEC/D3 brain endothelial cells (human, UniProt P02786 1-760); assay: hCMEC/D3 transwell assay, IgG ELISA of cell lysates and media
T1 construct: whole, on cells; also called blood brain barrier receptor
Experimental: We used brain endothelial cells (hCMEC/D3) to investigate cell binding and transcytosis of the shuttle modules as reported herein. […] To investigate cell binding and transcytosis in hCMEC/D3, hCMEC/D3 cells cultured on filter inserts were incubated apically with the bispecific antibody or parent antibody (without hapten-binding scFvs as controls) for 1 h at 37° C. Cell monolayers were washed at RT in serum-free medium apically (400 μl) and basolaterally (1600 μl) three times for 3-5 min. each. All wash volumes were collected to monitor efficiency of removal of the unbound ligand or antibody. Pre-warmed medium was added to the apical chamber and the filters transferred to a fresh 12 well plate (blocked overnight with PBS containing 1% BSA) containing 1600 μl pre-warmed medium. At this point, cells on some of the filters were lysed in 500 μl RIPA buffer (Sigma, Munich, Germany, #R0278) in order to determine specific uptakes. The remaining filters were incubated at 37° C., and samples of cells and of basolateral and apical media were collected at various time points to determine apical and/or basolateral release. The content of antibody in the samples was quantified using a highly sensitive IgG ELISA.

[2] = target: T1, human transferrin receptor (TfR) on …; assay: FACS on hCMEC/D3 cells, anti-IgG-PE detection, Dig-Cy5 as payload
Text: To evaluate this functionality of the hapten-binding bispecific antibodies as reported herein, simultaneous cell surface and payload binding was addressed by FACS analyses. For these analyses, cell binding of the blood brain barrier-shuttle module (=bispecific antibody) was detected by phytoerythrin-labeled IgG recognizing secondary antibodies. Simultaneous payload binding was detected by application of a haptenylated fluorescent payload (digoxigenylated Cy5; DIG-Cy5 (see above)).

T1 sequence (P02786 whole entry): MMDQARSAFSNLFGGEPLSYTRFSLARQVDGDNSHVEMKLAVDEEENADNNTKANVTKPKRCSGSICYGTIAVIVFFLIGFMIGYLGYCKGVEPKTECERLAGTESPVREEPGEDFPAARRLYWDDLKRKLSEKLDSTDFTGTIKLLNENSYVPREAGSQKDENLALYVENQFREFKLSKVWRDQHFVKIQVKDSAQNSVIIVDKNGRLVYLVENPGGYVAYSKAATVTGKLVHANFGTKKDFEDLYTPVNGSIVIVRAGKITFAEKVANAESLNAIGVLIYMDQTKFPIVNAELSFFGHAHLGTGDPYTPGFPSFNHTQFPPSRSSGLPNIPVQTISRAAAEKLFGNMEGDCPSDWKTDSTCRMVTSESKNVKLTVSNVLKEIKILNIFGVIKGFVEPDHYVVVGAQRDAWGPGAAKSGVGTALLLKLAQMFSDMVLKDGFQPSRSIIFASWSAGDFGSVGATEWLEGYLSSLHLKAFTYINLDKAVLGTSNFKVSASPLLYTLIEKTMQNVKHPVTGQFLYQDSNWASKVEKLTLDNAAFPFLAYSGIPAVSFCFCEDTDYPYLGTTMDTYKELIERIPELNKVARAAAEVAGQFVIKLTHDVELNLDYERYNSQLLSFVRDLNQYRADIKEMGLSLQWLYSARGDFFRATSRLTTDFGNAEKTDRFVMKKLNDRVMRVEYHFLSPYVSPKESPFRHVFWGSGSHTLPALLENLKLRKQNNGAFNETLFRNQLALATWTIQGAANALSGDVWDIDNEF

| Binder | binding result [1] | binding result [2] |
| --- | --- | --- |
| B1 | binds |  |
| B2 | binds |  |
| B3 |  | binds |
| B4 | binds |  |
| B5 |  | binds |
| B6 | binds |  |
